The text below walks through data of US20170112760.

This data set deals with T1, RALA peptide.
T1 chain: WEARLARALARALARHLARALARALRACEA

B1: proteinase K (protein)
chain: AAQTNAPWGLARISSTSPGTSTYYYDESAGQGSCVYVIDTGIEASHPEFEGRAQMVKTYYYSSRDGNGHGTHCAGTVGSRTYGVAKKTQLFGVKVLDDNGSGQYSTIIAGMDFVASDKNNRNCPKGVVASLSLGGGYSSSVNSAAARLQSSGVMVAVAAGNNNADARNYSPASEPSVCTVGASDRYDRRSSFSNYGSVLDIFGPGTSILSTWIGGSTRSISGTSMATPHVAGLAAYLMTLGKTTAASACRYIADTANKGDLSNIPFGTVNLLAYNNYQA
In the case of B1, the “release of DNA from RALA/pEGFP-N1 nanoparticles on agarose gel after 30 min with 20% proteinase K (0.1 mg/mL)” value is reported as “the RALA peptide is cleaved by proteinase K thus releasing the DNA into solution”.
